For experiment [1], the target named is pAcGFP1-53 (positive control bait) (UniProt P02340). The experiment can be described thus: co-IP; Matchmaker Co-IP system; HEK 293 cells co-transfected with the pAcGFP1 bait and the pProLabel prey; co-immunoprecipitation with protein G Plus/A agarose beads, read by the ProLabel enzyme complementation assay (RLU every 5 min for 45 min).
Experiment [2] addresses ASB9 bait in the pAcGFP1-C vector (pAcGFP1-ASB9) (bovine). The experiment is described as above.

UniProt P02340, sequence (P02340 whole entry): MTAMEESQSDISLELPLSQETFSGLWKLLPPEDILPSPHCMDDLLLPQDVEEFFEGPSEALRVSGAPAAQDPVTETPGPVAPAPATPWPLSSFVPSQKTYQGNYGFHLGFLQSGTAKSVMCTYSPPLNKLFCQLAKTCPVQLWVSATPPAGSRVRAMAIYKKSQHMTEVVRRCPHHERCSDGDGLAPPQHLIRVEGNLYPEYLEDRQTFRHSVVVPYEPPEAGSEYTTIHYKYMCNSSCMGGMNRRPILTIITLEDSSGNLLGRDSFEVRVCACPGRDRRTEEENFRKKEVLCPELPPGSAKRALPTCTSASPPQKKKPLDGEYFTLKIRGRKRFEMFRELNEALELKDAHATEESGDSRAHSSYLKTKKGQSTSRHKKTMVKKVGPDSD

As to “ProLabel-T (positive control prey) (natural protein)”, the fold induction of ProLabel enzymatic activity after co-IP (positive control) in experiment [1] amounted to 37 fold.

“Tumor necrosis factor alpha-induced protein 6 (TNFAIP6) in the pProLabel-C vector (natural protein)”: the fold induction of ProLabel enzymatic activity after co-IP, against the negative control, at 40 minutes in experiment [2] amounted to 18 fold. For the substance “Hypoxia inducible factor 1, alpha subunit (HIF1A) in the pProLabel-C vector (natural protein)”, the fold induction of ProLabel enzymatic activity after co-IP, against the negative control, at 40 minutes in experiment [2] came out at 13 fold.

(Values after PMC6392328.)
